{"source": "paper PMC11184549", "about": "(ACS Infectious Diseases, 2024)", "biological_target": "human IMPα1 lacking the IMPβ-binding domain (IMPαΔIBB) (human, UniProt P52292 70-529)", "assay": "fluorescence polarisation", "note": "No end group written: not given here. *: point of attachment. FITC = O=C1OC2(c3ccc(O)cc3Oc3cc(O)ccc32)c2ccc(NC(=S)*)cc21; Ahx = NCCCCCC(=O)O"}
{"binder": "{FITC-Ahx}-LWGFLSRNKKPRICTREEF", "note": "[FITC-labeled DENV1 NS5 NLS_(Central) peptide]", "values": [{"measurement": "Kd", "result": "> 700", "unit": "nM"}]}
